This is an account of results in article PMC7268548, “A missense variant in specificity protein 6 (SP6) is associated with amelogenesis imperfecta”.

One data set addresses T1, SP6 p.(Ala273Lys) (Homo sapiens, UniProt Q3SY56 1-376, A273K).
T1 sequence: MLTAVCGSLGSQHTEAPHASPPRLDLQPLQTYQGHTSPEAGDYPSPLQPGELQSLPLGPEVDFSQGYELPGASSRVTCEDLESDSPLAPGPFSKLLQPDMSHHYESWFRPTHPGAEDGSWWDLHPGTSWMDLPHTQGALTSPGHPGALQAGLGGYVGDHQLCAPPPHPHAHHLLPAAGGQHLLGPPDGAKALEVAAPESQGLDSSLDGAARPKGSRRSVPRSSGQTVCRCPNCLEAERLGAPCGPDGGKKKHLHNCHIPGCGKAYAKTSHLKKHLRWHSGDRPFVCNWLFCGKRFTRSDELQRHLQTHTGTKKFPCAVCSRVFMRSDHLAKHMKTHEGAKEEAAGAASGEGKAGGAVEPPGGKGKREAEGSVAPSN
Briefly: SPR; up to 400 nM; data not shown; Biacore 3000 SPR, 10 mM HEPES pH 7.5, 200 mM NaCl, 0.01% surfactant P-20, 25 C, 40 uL/min, protein 6.25-400 nM, DNA on SA chip. Particulars: protein: recombinant; tags: N-terminal His-GST; label: 5'-biotin on forward strand; blunt. For orientation: SPR reads the build-up and loss of mass on a sensor chip optically.

The next data set has as its target T2, SP6 wild type (Homo sapiens, UniProt Q3SY56 1-376).
T2 sequence: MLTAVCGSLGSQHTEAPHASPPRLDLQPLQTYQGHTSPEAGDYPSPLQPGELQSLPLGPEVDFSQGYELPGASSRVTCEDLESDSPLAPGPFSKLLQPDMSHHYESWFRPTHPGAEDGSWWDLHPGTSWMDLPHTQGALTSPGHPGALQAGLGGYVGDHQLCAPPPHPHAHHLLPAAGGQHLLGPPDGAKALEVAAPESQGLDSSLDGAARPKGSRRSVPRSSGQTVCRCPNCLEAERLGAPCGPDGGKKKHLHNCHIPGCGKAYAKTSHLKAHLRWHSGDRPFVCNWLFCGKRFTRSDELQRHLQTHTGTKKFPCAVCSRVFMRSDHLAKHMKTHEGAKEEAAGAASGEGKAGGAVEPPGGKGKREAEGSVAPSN
Described as above. Particulars: protein: recombinant; tags: N-terminal His-GST; label: 5'-biotin on forward strand; blunt.

B1: NKX2-1 promoter probe (SP3 site control) (dsDNA)
DNA 1: GGGATCCGGGACAGCCTCCGGGAGGCAGTCGATCCCCTAC
DNA 2: GTAGGGGATCGACTGCCTCCCGGAGGCTGTCCCGGATCCC
For the molecule B1, the binding result with SP6 p.(Ala273Lys) and with SP6 wild type was “no binding” in each case.
